Assay results published in the DeepSol protein solubility set.

Test: soluble on expression in E. coli; label from the status in PepcDB or PDB records

Sequence	soluble on expression in E. coli
MSLKTQQSYQQRDDKGTLYLVATPIGNLEDVTFRAIRTLKEADQIAAEDTRQTKKLLNHFDIATKLVSYHEHNKETMGKRLIDDLIEGRTIALVSDAGMPAISDPGYELVVSAIKEGIAVIPIPGANAAVTALIASGLPTESFQFIGFLPRQKKQRRQALEETKPTKATLIFYESPHRLKDTLDDMLLILGNRHVSICRELTKTYEEFLRGTLEEAVHWAREATIKGEFCLIVEGNGEKVEPEEVWWESLSPVQHVEHYIALGFRSKEAIKQVATDRGVPKRDIYNIYHQEEGHHHHHH	soluble
MSLKTVEEQAKNIYQLLEMVYGTSPWTLEQVLIDIRRDQTDYFLLYDHDKLLGFLAIQDLAGEVEMTQIAILPSHQELGLASQLMTHLDSIESDIFLEVRESNHRAQGLYQKFGFKFIGKRPDYYRNPIETALLMKREGKHDREGHHHHHH	soluble
MSLKVALLQIDTVVGDIVGNAARIADAVREAASLGARLCVTPELALCGYPPRDLLLQDDFVPACRKALEALAQQLRDLPPVLVGAPVPNPSPVGNPIHNCAVLLREGKVTVATRKVLLPNYDVFDERRYFESGVGCGVVTIDGWRFGVTICEDVWNDKTFWQEHRHYENDPVADLMAGGADAILNLSASPFTLGKQAVRERMLSRVAFRYRVSVLYANQVGGNDDLVFAGKSIAFDATGTLIARGRSFAEDIVMVDVAQATGTITAEPTSDEEQVWKALVLGTRDYARKCGFDGAVLGLSGGIDSALVAAVAAEALGPDKVLGVLMPSPHSSEGSVTDALALASSLGIATCTIPIGDLMHGFEAALAQAFAGREADVTEENIQSRIRGNLLMALSNKQRRLLLTTGNKSELAVGYCTIYGDMAGGLAVIADLPKTLVYRVAHWLNERDTSHGHEGREARETIPSAILTKEPSAELRPGQRDSDSLPPYDVLDGILERLVELRRSAADIVAEGYDVETVRKVLRLVCNAEFKRRQAPPGLKVTDRAFGTGWRMPVAARVNLGEGHHHHHH	soluble
MSLKVALVHDWLTNMGGAERVIINLKEIYKEAPIYTSLYNPDKLDDELRNIDVRTSFLQKPKNIKRGHQKLLPFMPMAFESFDLNEYDIVLSSCSSCAKGVVTNPNTMHVCYCHTPMRYAWEYYYEYADEWGLNKLKGKLLKYVMNYIRLWDGVSSKRVDYYIANSQNVAKRIWKHYKRESVVIHPPVRCKLFDISDVNEEYFLIVSRLVPYKRIDLAVEVFNELGLPLVVIGGGKDLDRLKNMAKDNIKFLGRQSDEVIKEYYSKCRAFIFPGEEDFGITPLEAQASGRPVIAYGKGGALETVVSGVTGVFFKEQTVDSLKSAVNEFEKINFDKSVIRRHAEEFDEEIFKKKIREYLSRSYDEFKKLKKWKVEGHHHHHH	soluble
MSLKVHLNYETGPEHWADLQSRLAPGIRLSSGECRPANGFDILVSGEPTLEELEGNGRLRAVIVPWVGVPLATLDRMKEFPSIALHNLPYNIGPTAEMAVALLLAAAKRIVPYDQRLRRGYWSGEHTGVPGSVMLDGGLAVILGYGRIGRRVAAACRGLGMRIAGVRRNPGTSDEEYALADLSGLLPQAAALIVCLPHTHQTDRLIGSRELERLPSNAVLVNVARGGIVNEEALYRTLQARRIYAAGIDVWYRYPSATERKQGLPHPPSSFPFHTLDNVVMSPHRAGWSEEKEPARIAELANMLNAAARGEGHHHHHH	not soluble
MSLKVKSIKAITLSMPFSHGGKKVIFHGKEWKSLEFNLIRLETDKGIVGWGEAFGFSSWKAVRVAIEEMVAPMIIGKDMSNIPELLLNLQKSLHLFGRYGITMFAISGVEIALWDAFGKEKNKPVHELLGKKNNDIFKAYSSLFRYGDPKIIEQKCKQSLDDGYRAIKLHEIENNCIEAGRKGTGDLPMMLDTNCPWTYEQTLAKKDFLKSMNLTWLEEPIYPPEDYQTLAKLNKELGIPLACGENACTEYEFKSMIDHKAVSFVQPSVIKVGGIYEMFKIINIAEDKNISVMPHTAYFGPGFLATLQLAALMKKETYIERFYLDIDEEFYPNFKKALNGKYNLPKGPGLGIDLDYKRLSKYEIEGHHHHHH	soluble
MSLKVVSLLTDFGDFYPGVMKGVILSLAPEARIVDITHSVEPQNILQGAFLLYHSFRYFRNAVHVAVVDPGVGSERRALVIEGKNHFFVGPDNGILYPSAVEDGIKAAYSIKEEISELVGELSSTFHGRDIFAPAAAMVVRGDYTYFEEINKEELEKLELFDCSIQGNKVRCRVVYVDRFGNVVTNLREVKGKGFYFRGVEFPFVKTYSDVDVGKPLSLIGSFGTLELSVREGSAAEMLGIKRGGGWIELEVLEGGSHHHHHH	soluble
MSLKYDYVIIGNSAGGIGCVEAIRELDVDSSILVISAEKYHAYSRALIPYYLDGKIEFEKMYYRPPDFYEKMDVETKLGVRAVGVDVEAKKVLLESGEEVEYGKLLIATGGKPFIPPMEGLGGQSNVFTFLKMDDVLAVEKAIKEAKKAVVLGGGIIGLMASEVLAKKGLDVKVVELADRVLAPVVDETTSRIVERKFEENGVEIILNNTISKVVGEERVEKVILRDGRELEADMLLVAVGVVPNVDIVKNTPIKVNRGIVVNRKMETSVKDVYACGDCAEIYDFVFGANRVLPLWPTAYTGGRIAGFNMVGIEREYNLATSMNAMHFFDYYIINAGLNVPNDSEEFEVIYRLEGDSYRKFALKDGRIAGFIIAGKMERAGIFLKLMEEGIDVSSFKEKLLKDNFGFLDIPEPTRWKLIEDKIKLGVVREIEGHHHHHH	soluble
MSLKYKAIAAGLLAAHLLAHPISSLAETKKFPDVSDSAWSKDAIYYLVERNVINGMPDGNFMPYGNLTRAQAAKIIATAIGAKVDPNAKPSYNDAKNSWAASFIAAMEKENIIKGREPGVFDPEGKVTRAEMAAMLVRAYNLKSKVTGPVPTKFADLENHWGKEEVNILVELKLSLGTENGWKPNDSITREQAAQLTAQTDKFSKNSDRPVEEGHHHHHH	soluble
MSLKYNNCVIGSRSVFPPRGLQETNIGIVHISDINHYYTLNLSRKIENHLSKLTGAGTGDSVEDSMFLATMEAYERLANSIPVSQQVIASQEELGDLAVPLSDFPKMNQSETSSNGIEKKYLRWSESYNLTDQSRCYIPQVYINLYTHFNYNGEGLTHPISTGCAIHQDYTRAVINGIYEVIERDGIALFWLLKRPLKKLDKQEFIDDLEIFSSPFLGKTTLYDASTINGVYTFCLRAETHFSESIRNVVMFSSNTCPKEAISKLKKELISVIYSLANGIEKQSNLLKQDPMSFYHVDEGALYMAHPSKAYAFEFLNNSSKGSIPTNEIQFSSYGEELRYLIKKLEGLGHKVYVTNLSNRECEENQLKAVKVTIPSLQPISFVHSAREGHHHHHH	not soluble
MSLKYSFIAQHKKTWPVGMMCQLMGVTSSGYYSYQKRKSTKTNNEPEHEELLEWVKKISESSKFSYGNRRIRKALNALGYPVGRRKTHRLMREAGIFVRYKKKYKVTTNSNHKQPIFDNVLNRKFQVNEPNRAYVSDMTYIPTHEGWLYLTVVIDLFSRKVVGWNMSSRMKADTVCDALTMAIWQRKPKAGLIVHSDRGSQYASKQYRSLLNQHGLVGSMSKKGDCWDNSVAESFFSRLKDELVHWRNYQTRREAKQDILDYMTMFYNNQRLHSSLDYLSPNQFENRYWGLMKKVAEGHHHHHH	not soluble
MSLLHERINFNPKVDVEVKLPERLEEGKITEVNVVVRNRGSKGILEVKIEGEDLIGEAKRVKLDSGEKLVKLSVKPLNKGDKVLKVKALFEDELNLYYSEVYEAEFSIQVLPSVDSIREAAREEVSIRMREALKKGKIGVESTELYGLREYLPGDDVRRIDWKATTRLRKLIVKEFMRESEGDVYIVLDATREMRKRIRRSKIDYASSLVLYIATILIRSNKRVGLILFSEDEFKVVKPEKGSEQLERIRETLRFKPLKGLTSFKGEVGRLKTWDFLRKLFPRKRRGVEEALLSIRNPSYVILITDLMSNTPRLYSAVSMVKKKHKVIILSPNPVLFYSGELDEETLRFLYEKYRERERILRKFNSLVPTVDLGPSDYGREVLEVLEGEGHHHHHH	not soluble
MSLLNEENNFYNVDLLDLLKDSNEAVLPYKRIRFRRNQKILTEGAETTYFYIIEDGVVSMSKNTCKEDSIISFLGKQDSIGPLTLLGGAKSPANYTSISEVSVYQFERKYVLNKLLSSPDVFWQMNSLMQSMVSPMLEREAYVNLPSSEKVLAGLIACGERFGRIESDGSCLIPYYFTQKILGNYLNLARAYVATNLRKLEEDGVISLSPKPWRVKNFDVHRQKLKDNYKPYI	not soluble
MSLLNENDIEQLTLQRLQSLGWEYRYGKDLPVHEGKFARGDLSGVVFVEQLREAVRKLNPQLPESAVDSVVKSATKSDIGDLVVRNQTFYKLLRDGVRVEYTQNGEQKIEMVRLVDFEHWGNNRFVAVNQLEIRSRKGGKRIPDIIGFVNGLPLVVFELKNPLRESADLLQAFNQFETYKDEIAELFVYNQALIISDGIVARLGSLSADFQRFTPWKVVDEKNKSARLYFDDELQSLLNGLMQPEDLLDYIRYFVLFERDSVGKTIKKIAAYHQYYGVNEAVDSTIWATSEKGDRRIGVMWHTQGSGKSISMLFYAGKLLAQPELKNPTIVVVTDRNDLDGQLFQTFSSGKDLIKQTPQQVEDRDQLRQLLAQNEVGGVFFTTIQKFALNEEESRFPILNERNNIIVISDEAHRSQYGFTQKLHNGKFQTGYARHLRDALPNASFIGFTGTPISLEDKDTQDVFGRYVSIYDLQDAVEDGATVPIVYDDARQIRLNKKDHDALFAEIDALLEEEPSTSLRLREKLLGSQERLIELAADFVQHFAKRNEVVDSKAMMVVSSRQICVDLYNQIIALHPEWHSDNINEGAIKIVMTGSASDTPEMQKHIYSKQEKQTLERRFKDPNDPLKVVIVRDMWLTGFDAPCCNTMYLDKPMKGHNLMQAIARVNRVFANKSRENGGLIVDYVGLAKELRAATQQYTNSTGKGQLAEDVQSVFFKMKEQLEFIRTLFATPIEGKTFDVQAALEKDNPNDLLMAIRFAANHILSLDQLSFDGKAHEQHWFNKKETEPRKKAFLKTAGLVKKGYMLCGTLAEVEPYNQEIAFYDAVRAILTKREQKGTGTNERQILLKKLVNQTVYSEGVIDLFDLLEKPQPQISLLSEEFLQTVKNSPTKNLWVSAMERYLASEIKVKSGTNLTLQKDFERRLKEALNQYHNHNLTVVEILDELFKMSQDFQERLALGKKLGLTKEELAFYEALSQNQSAKDLMGDEVLSKLAKEITETLRKSVTIDWQYKEAVRARIRLLVRRALQKYKYPPDKQEEAVTYVIKQAEEIAEDLTGLEGHHHHHH	soluble
MSLLPVNNPPLSTGNVSFYRTTSIDNVHNNYLSEWVEWTKNSISGENRETAFTRLQLCLENSETSLDLSCLGLRSLPRLPDNLDEINVSNNQLSMLPELPRALKELNASSNQLSALPELPVSLEYINVSDNHLFALPELPASLEYINVSDNHLSVLPRLPMSLELLDAARNALEVIPDFPERDDHIIRIFWLNQNRITAIPESILGLSSDSVVNLRENQLSPRIMQTLLQQTAQPDYHGPRIYFSMSDGQQNTLHRPLADAVTAWFPENKQSDVSQIWHAFEHEEHANTFSAFLDRLSDTVSARNTSGFREQVAAWLEKLSASAELRQQSFAVAADATESCEDRVALTWNNLRKTLLVHQASEGLFDNDTGALLSLGREMFRLEILEDIARDKVRTLHFVDEIEVYLAFQTMLAEKLQLSTAVKEMRFYGVSGVTANDLRTAEAMVRSREENEFTDWFSLWGPWHAVLKRTEADRWAQAEEQKYEMLENEYPQRVADRLKASGLSGDADAEREAGAQVMRETEQQIYRQLTDEVLALRLSENGSQLHHSEGHHHHHH	soluble
